In this test the target is MucR from Brucella abortus (wild-type full-length protein) (Brucella abortus). Put plainly: SEC-MALS.

As a reminder, the stoichiometry N is a count of units in the complex or per binding partner. In the case of “MucR from Brucella abortus (wild-type full-length protein) (natural protein)”, the stoichiometry N amounted to 10.4.

The values above are taken from article PMC6250670.
